B1: scFv; the commonest letter at each place (parent)
chain 1: EVKLDETGGGLVQPGRPMKLSCVASGFTFSDYWMNWVRQSPEKGLEWVAQIRNKPYNYETYYSDSVKGRFTISRDDSKSSVYLQMNNLRVEDMGIYYCTGSYYGMDYWGQGTSVTVS
chain 2: DVVMTQTPLSLPVSLGDQASISCRSSQSLVHSNGNTYLRWYLQKPGQSPKVLIYKVSNRFSGVPDRFSGSGSGTDFTLKISRVEAEDLGVYFCSQSTHVPWTFGGGTKLEIK

The series “fluorescein” covers variants of B1. The experiment in a line: Kd (Tite-Seq). Conditions: with fluorescein; format: scFv 4-4-20, heavy + light.
Variants of B1 are the subject of series [1]. In words: yeast surface expression (ratio to wild type); higher = more expressed. Conditions: format: scFv 4-4-20, heavy + light.

Consider chain 1 G100N G104Y, for which the Kd in the series with fluorescein was not below 10 µM. Moreover, the yeast surface expression in series [1] worked out at 0.185.
For chain 1 G100N G104N, in that order: not below 10 µM and 0.347.
For chain 1 G100N G104W, the Kd in the series with fluorescein is not below 10 µM. In series [1], the yeast surface expression amounted to 0.281.
For chain 1 G100N G104F, in that order: not below 10 µM and 0.321.
The corresponding values for chain 1 G100K G104C are 4.6 µM and 0.182.
The corresponding values for chain 1 G100K G104H are not below 10 µM and 0.322.
In the case of chain 1 G100L Y102W, in the series with fluorescein, the dissociation constant Kd was not below 10 µM. Moreover, the yeast surface expression in series [1] worked out at 0.497.
The corresponding values for chain 1 G100Q Y107C are not below 10 µM and 0.176.
For chain 1 G100N G109R, in that order: not below 10 µM and 0.283.
The corresponding values for chain 1 G100N G109H are not below 10 µM and 0.236.
As for chain 1 G100M S101E W108V, in the series with fluorescein, the Kd was not below 10 µM. In addition, the yeast surface expression in series [1] was determined as 0.515.
For chain 1 G100L D106L, in that order: not below 10 µM and 0.395.
For chain 1 G100I G104W, in that order: not below 10 µM and 0.449.
The corresponding values for chain 1 G100P W108M are not below 10 µM and 0.572.
On to chain 1 G100Q G109E, for which the Kd with fluorescein was not below 10 µM. Further, the yeast surface expression in series [1] was 0.304.
For chain 1 G100Q G109M, in that order: not below 10 µM and 0.223.
Take chain 1 G100Q G109C: in the series with fluorescein, the equilibrium dissociation constant (Kd) was not below 10 µM. Besides, in series [1], the yeast surface expression was found to be 0.226.
The corresponding values for chain 1 G100M Y107T are not below 10 µM and 0.729.
The corresponding values for chain 1 G100M Y107G are not below 10 µM and 0.575.
For chain 1 G100L G109S, in that order: 9.5 µM and 0.566.
Regarding chain 1 G100L G109R, the Kd in the series with fluorescein was not below 10 µM. The yeast surface expression in series [1] stood at 0.268.
The corresponding values for chain 1 G100L G109V are not below 10 µM and 0.253.
For chain 1 G100Q M105S, in that order: not below 10 µM and 0.521.
In the case of chain 1 G100R G104V M105S, the Kd with fluorescein is not below 10 µM. In addition, the yeast surface expression in series [1] was 0.211.
The corresponding values for chain 1 G100P M105S G109M are not below 10 µM and 0.234.
The corresponding values for chain 1 G100I W108R are not below 10 µM and 0.781.
Turning to chain 1 G100I W108M, the dissociation constant (Kd) with fluorescein turned out to be 0.00468 µM. Moreover, in series [1], the yeast surface expression worked out at 0.946.
The corresponding values for chain 1 G100I W108K are not below 10 µM and 0.698.
The corresponding values for chain 1 G100M G104P D106I are not below 10 µM and 0.361.
The corresponding values for chain 1 G100N Y102D G109M are not below 10 µM and 0.159.
Regarding chain 1 G100K G109V, the equilibrium dissociation constant (Kd) in the series with fluorescein is not below 10 µM. Besides, the yeast surface expression in series [1] is 0.188.
The corresponding values for chain 1 G100P S101T are not below 10 µM and 0.486.
As for chain 1 G100Q D106I, the Kd with fluorescein is not below 10 µM. Further, the yeast surface expression in series [1] came to 0.184.
The corresponding values for chain 1 G100Q D106P are not below 10 µM and 0.222.
Turning to chain 1 G100Q D106H, the equilibrium dissociation constant (Kd) with fluorescein was not below 10 µM. In addition, in series [1], the yeast surface expression amounted to 0.182.
As to chain 1 G100I Y102M, the Kd with fluorescein is not below 10 µM. The yeast surface expression in series [1] was determined as 1.08.
For chain 1 G100I Y107D, in that order: not below 10 µM and 0.381.
In the case of chain 1 G100I Y107P, the Kd with fluorescein was not below 10 µM. For the same variant, the yeast surface expression in series [1] amounted to 0.276.
With chain 1 G100I Y107E, the Kd with fluorescein is not below 10 µM. For the same variant, in series [1], the yeast surface expression was found to be 0.689.
For chain 1 G100N S101C, in that order: not below 10 µM and 0.234.
The corresponding values for chain 1 G100N S101I are not below 10 µM and 0.189.
The corresponding values for chain 1 G100Q Y107L G109E are not below 10 µM and 0.226.
Consider chain 1 G100L S101K, for which the dissociation constant (Kd) with fluorescein is not below 10 µM. In series [1], the yeast surface expression was 0.461.
For chain 1 G100L S101M, in that order: not below 10 µM and 0.474.
For chain 1 G100Q W108R, in that order: not below 10 µM and 0.232.
For chain 1 G100Q W108N, in that order: not below 10 µM and 0.289.
chain 1 G100H S101H: in the series with fluorescein, the Kd was not below 10 µM. Further, in series [1], the yeast surface expression turned out to be 0.273.
The corresponding values for chain 1 G100H S101E are not below 10 µM and 0.4.
For the variant chain 1 G100H S101G, the Kd with fluorescein is not below 10 µM. For the same variant, the yeast surface expression in series [1] came out at 0.649.
In the case of chain 1 G100I G109A, the Kd in the series with fluorescein is not below 10 µM. Moreover, in series [1], the yeast surface expression amounted to 0.429.
For chain 1 G100I G109I, in that order: not below 10 µM and 0.25.
For chain 1 G100M G104C, in that order: not below 10 µM and 0.544.
In the case of chain 1 G100M S101V, the dissociation constant Kd with fluorescein is not below 10 µM. Besides, the yeast surface expression in series [1] was determined as 0.549.
With chain 1 G100N Y107V, in the series with fluorescein, the dissociation constant (Kd) is not below 10 µM. For the same variant, in series [1], the yeast surface expression stood at 0.691.
For chain 1 G100N Y107K, in that order: not below 10 µM and 0.6.
The corresponding values for chain 1 G100H D106F are 9.5 µM and 0.752.
For chain 1 G100R M105Y W108P, in that order: not below 10 µM and 0.298.
As to chain 1 G100L, the equilibrium dissociation constant (Kd) in the series with fluorescein is not below 10 µM. Further, the yeast surface expression in series [1] was found to be 0.747.

The term Kd denotes the free concentration of one partner at which half of the binding sites on the other are occupied at equilibrium, for simple one-to-one binding.
